Measured values as given in patent US20220112288A1 (published 2022).
Where a chain is given by its changes, count along the chain named.

B1: 75110_14P08A (antibody, V domains shown)
VH: QVQLQESGPGLVKSSETLSLTCTDSGDSIRSYYWNWIRQPAGKGLEWIGRIYASGSTNYNPSLKSRVIMSADTSKNRFSLKLSSVTAADTAVYYCARDGGVGDSLDYWGQGTLVTVSS
VL: DIVMTQTPLSLPVTPGEPASISCRSSQSLLDSDDGNTYLDWYLQKPGQSPQLLIYTLSYRASGVPDRFSGSGSGTDFTLKISRVEAEDVGVYYCMQRIEFPFTFGPGTKVDIK
notes: Tested as clonal hybridoma supernatant from AlivaMab Mouse Kappa mice: human variable regions, human kappa, mouse Fc
B2: 75110_14G10A (antibody, V domains shown)
VH: EVQLVESGGGLVKPGGSLRLSCAASGFTFSSYSMNWVRQAPGKGLEWVSFISSSSSYIYYADSVKGRFTISRDNAKNSLYLQMNSLRAEDTAVYYCARERGDDYGDYEGAFDIWGQGTMVTVSS
VL: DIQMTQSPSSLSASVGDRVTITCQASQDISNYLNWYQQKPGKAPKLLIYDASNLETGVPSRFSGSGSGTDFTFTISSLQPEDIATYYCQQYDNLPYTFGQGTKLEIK
notes: as for B1
B3: 75110_14N19A (antibody, V domains shown)
VH: QVQLQESGPGLVKPSETLSLTCTVSGGSISRYYWSWIRQPAGKGLEWIGRICTSENPNYNPALKSRVTMSVDTSKNQFSLKLSSVTAADTAVYYCARELERLNYYGMDVWGQGTTVTVSS
VL: DIQMTQFPSSLSASVGDRVTITCQASQDISNYLNWYQQKPGKAPKLLIYDASNLESGVPSRFSGRGSGTDFTFTISSLQPEDFATFYCQQYDTLPITFGQGTRLEIK
notes: as for B1
B4: 75110_14I16A (antibody, V domains shown)
VH: QVQLQESGPGLVKPSETLSLTCTVSNGSISSYYWSWIRQSAGKGLEWIGRIYTSGSTNYNPSLKSRVTMLVDTSKNQFSLKLSSVTAADTAVYYCARDREDYYYYGMDVWGQGTTVTVSS
VL: DIQMTQSPSSLSASVGDRVTITCQASHDISNYLNWYQQKPGKAPKLLLYYASNLETGVPSRFSGSGSGTDFTFTITSLQPEDIGTYSCQQYDNLPLTFGGGTKVEIK
notes: Tested as clonal hybridoma supernatant from AlivaMab Mouse Kappa mice: human variable regions, human kappa, mouse Fc; also called 75110_14116A
B5: 75110_08A13A (antibody, V domains shown)
VH: EVQLVESGGGLVQPGGSLRLSCAASGFIFSSYWMSWVRQAPGKGLEWVANIKQDGSEKYYMDSVKGRFTISRDNAKNSLYLQMNSLRAEDTAVYYCARDNSYYYYGMDVWGQGTTVTVSS
VL: AIQMTQSPSSLSASVGDRVTITCRASQGIRDDLGWYQQKPGKAPKLLIFAASSLQSGVPSSFSGSGSGTDFTLTISSLQPEDFATYYCLHHYNYPYTFGQGTKLEIK
notes: Non-clonal AlivaMab Mouse Kappa hybridoma supernatant, captured by anti-mouse IgG Fc (human V regions, mouse Fc)
B6: 75110_05A11A (antibody, V domains shown)
VH: EVQLVESGGGLVKPGGSLTLSCAASGFTFSNTWMSWVRQAPGKGLEWVGRIKSKIDGGTTDYAAPVKGRFTISRDDSKNTLYLQMNSLKTEDTAVYYCTTSGTYSSGWGLFDYWGQGTLVTVSS
VL: DIQMTQSPSSLSASVGDRVTITCQASQDISNYLNWYQQKPGKAPKLLIYDTSNLEAGVPSRFSGSGSGTHFTLTISSLQPEDIATYYCQQYDNLPFTFGGGTRVEIK
notes: as for B5
B7: 75110_05E13A (antibody, V domains shown)
VH: EVQLVESGGDLVKPGGSLRLSCAASGFSFSNAWMSWVRQAPGKGLEWVGRVESKTDGGTTDYAAPVKDRFTISRDDSKYTLYLQMNSLKTEDSAVYYCTIGGGFGLELYGFFDYWGQGTLVTVSS
VL: DIQMTQSPSTLSASVGDRVTITCRASQSISSWLAWYQQKPGKAPMLLIYKASSLESGVPSRFSGSGSGTEFTLTISSLQPDDFATYYCLQYNSYYTFGQGTKLEIK
notes: as for B5
B8: 75110_04G02A (antibody, V domains shown)
VH: not shown
VL: DIVMTQSPDSLAVSLGERATINCKSSQSVLYSSNNKNYLAWYQQKPGQPPKLLFYWASARESGVPDRFSGSGSGTDFTLTISSLQAEDVALYYCQQYFGSFPTFGQGTKLEIK
notes: as for B5
B9: 75110_01L08A (antibody, V domains shown)
VH: QVQLQESGPGLVKPSETLSLTCTVSGGSISHYYWSWIRQPPGKGLEWIGYIHYSGTTNYNPSLKSRVTISVDTSKNQLSLKLRSVTAADTAVYYCARDQGFSSGGMDVWGQGTTVTVSS
VL: not shown
notes: as for B5
B10: 75110_02I18A (antibody, V domains shown)
VH: EVQVVESGGGLVQPGGSLRLSCAASGFTFSSYDMHWVRQATGKGLEWVSTIGTAGDTYYPGSVKGRFTISRENAKNSLYLQMNSLRAGDTAVYYCARGGYYYYGMDVWGQGTTVTVSS
VL: EIVLTQSPGTLSLSPGERATLSCRASQSVSSSYLAWYQQKPGQSPRLLIHGASSRATGIPDRVSGSGSGTDFTLTISRLEPEDFAVYYCQQYGSSPFTFGPGTKVDIK
notes: as for B5
B11: 75110_08K12A (antibody, V domains shown)
VH: B10 VH with V4L, K75E, V92L, G99D
VL: B10 VL with S32T, S44A, H50Y, S54N, V63F, Y92F, S94T
notes: as for B5
B12: 75110_05F19A (antibody, V domains shown)
VH: B10 VH with V4L, S31N, M34V, A40P, Y101D, M105L
VL: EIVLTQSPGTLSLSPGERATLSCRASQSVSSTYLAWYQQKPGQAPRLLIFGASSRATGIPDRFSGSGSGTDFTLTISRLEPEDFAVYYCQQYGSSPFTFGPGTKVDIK
notes: as for B5
B13: 75110_07J24A (antibody, V domains shown)
VH: QAQLQESGPGLVKPSETLSLTCTVSGGSISSYYYNWIRQPAGKGLEWIGRIYTSGRTDYNPSLKSRVTMSADTSKNQFSLKLSSVTAADTAVYYCARDEGPTDAFDIWGQGTMVTVSS
VL: B1 VL with Q51H, T75S
notes: as for B5
B14: 75110_01C18A (antibody, V domains shown)
VH: EVQLVESGGGLIQPGGSLRLSCAASGFTVSSNYMNWVRQAPGKGLEWVSVIYAGDNTYSADSVKGRFTISRDNSNNTLCLQMNSLRAEDTAVYYCAREGGTTGAFDIWGQGTMVTVSS
VL: DIQMTQSPSSVSASVGDRVTITCRASQGINSWLAWYQQKPGKAPKLLIYAASSLQSGVPSRFSGSGSGTDFTLTISSLQPEDFATYYCQQGNSFPYTFGQGTKLEIK
notes: as for B5
B15: 75110_03I08A (antibody, V domains shown)
VH: QVQLQESGPGLVKPSETLSLTCTVSGGSISSYYWSWIRQPPGKGLEWIGYIYYSGSTNYNPSLKSRVTISVDTSKNQFSLKLSSVTAADTAVYYCAREGEQWFYGLDVWGQGTTVTVSS
VL: EIVLTQSPGTLSLSPGERATLSCRASQSVSSTYLAWYQQKPGQAPRLLIYGSSSRATGIPDRFSGSGSGTDFTLTISRLEPEDFAVYYCQQYGNSFPITFGQGTRLEIK
notes: as for B5
B16: 75110_02E22A (antibody, V domains shown)
VH: B3 VH with R31S, Y32F, C52Y, E55G, N56S, P57T, A62S, R101K, L102R
VL: B4 VL with L48I, Y49F, Y50D, N53T, D70Y, T76R, G84A, S87Y, N93S
notes: as for B5

What follows are binders tested against T1, human CD4 on human PBMCs (human, UniProt P01730 26-458) (assay: FACS, clonal hybridoma supernatant on human PBMCs).
T1 construct: whole, on cells; the CD4-positive gate was set with the control antibodies OKT4 and RPA-T4; also called hCD4

Binder | % CD4 Stain [%] | gMFI of CD4+ [gMFI]
B1 | 28.3 | 58500
B2 | 31.1 | 241000
B3 | 32.5 | 265000
B4 | 33.2 | 298000

Each binder was assayed against T2, Recombinant human CD4 (R&D Systems, Cat. 10327-CD) (human, UniProt P01730 26-390, limits assumed) (assay: BLI (Octet Red384), non-clonal supernatant on AMC sensor, 100 nM human CD4, 1:1 local fit;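 also: hybridoma antibodies captured from supernatant, single CD4 concentration as analyte, association and dissociation phases fitted together, giving single-point kinetic estimates per supernatant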).
T2 construct: Bought soluble recombinant protein used as analyte at 100 nM; also called huCD4

Binder | Kd [nM] | koff [s⁻¹] | kon [M⁻¹ s⁻¹]
B5 | 4.4 | 0.001 | 230000
B6 | 3.2 | 0.00055 | 170000
B7 | 7.4 | 0.0012 | 160000
B8 | 0.76 | 0.00017 | 220000
B9 | 4.1 | 0.00037 | 91000
B10 | 9 | 0.0033 | 370000
B11 | 4.5 | 0.0031 | 700000
B12 | 0.032 | 4.4e-06 | 140000
B13 | < 0.001 | < 1e-07 | 77000
B14 | 16 | 0.0013 | 86000
B15 | < 0.001 | < 1e-07 | 37000
B16 | 20 | 0.0042 | 210000

These binders were tested against T2, Recombinant human CD4 (R&D Systems, …) (assay: BLI (Octet Red384), non-clonal supernatant on AMC sensor, 100 nM human CD4).

Binder | Response
B5 | 0.35
B6 | 0.15
B7 | 0.33
B8 | 0.21
B9 | 0.09
B10 | 0.16
B11 | 0.11
B12 | 0.18
B13 | 0.14
B14 | 0.25
B15 | 0.07
B16 | 0.18
